# How the values were obtained:
# Mgal-WhiA [1] = biological target: T1, Mgal-WhiA (Mycoplasmoides gallisepticum, UniProt A0A0F6CKV5); test: microscale thermophoresis, Cy5-labelled protein, Hill fit; assay type: binding
# T1 construct: E. coli BL21-Gold (DE3); monomer without DNA; Cy5 NHS-ester labelled for ATP MST
# T1 sequence (A0A0F6CKV5 1-295): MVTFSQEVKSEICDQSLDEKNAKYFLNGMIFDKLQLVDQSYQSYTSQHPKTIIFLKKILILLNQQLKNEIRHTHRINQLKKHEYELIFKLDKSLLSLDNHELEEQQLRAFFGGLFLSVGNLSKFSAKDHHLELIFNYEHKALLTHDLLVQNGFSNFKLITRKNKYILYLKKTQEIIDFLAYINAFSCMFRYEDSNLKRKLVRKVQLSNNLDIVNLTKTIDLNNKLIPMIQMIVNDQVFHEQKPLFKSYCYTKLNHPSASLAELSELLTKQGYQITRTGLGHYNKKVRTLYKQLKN
# Mgal-WhiA [2] = biological target: T2, Mgal-WhiA (Mycoplasma gallisepticum S6, UniProt A0A0F6CKV5 1-295); test: FRET; with Q3 core duplex; strong quenching; EMSA: 20 mM carbonate pH 9.8, 6% glycerol, 37 C 10 min, gel at 10 C; MST: PBS (10 mM Na phosphate pH 7.4, 140 mM NaCl, 3 mM KCl), 0.05% Tween-20, 50 mM imidazole, 50 nM duplex, 20 C; settings: protein: recombinant; label: 5' 6-FAM on strand 1; blunt
# Mgal-WhiA [3] = biological target: T2, Mgal-WhiA; test: MST; 1 mM ATP; multistep curve, conflicts with EMSA; EMSA: 20 mM carbonate pH 9.8, 6% glycerol, 37 C 10 min, gel at 10 C; MST: PBS (10 mM Na phosphate pH 7.4, 140 mM NaCl, 3 mM KCl), 0.05% Tween-20, 50 mM imidazole, 50 nM duplex, 20 C; settings: protein: recombinant; label: 5' FAM (EMSA) or HEX (MST) on strand 1; blunt
# Mgal-WhiA [4] = biological target: T2, Mgal-WhiA; test: EMSA; no ATP; total binding; EMSA: 20 mM carbonate pH 9.8, 6% glycerol, 37 C 10 min, gel at 10 C; MST: PBS (10 mM Na phosphate pH 7.4, 140 mM NaCl, 3 mM KCl), 0.05% Tween-20, 50 mM imidazole, 50 nM duplex, 20 C; settings: protein: recombinant, blunt
# Mgal-WhiA Lys-170 = Mgal-WhiA Lys-170 (Mycoplasma gallisepticum S6, UniProt A0A0F6CKV5 1-295, K171G); test: EMSA; dimeric complex favoured; EMSA: 20 mM carbonate pH 9.8, 6% glycerol, 37 C 10 min, gel at 10 C; MST: PBS (10 mM Na phosphate pH 7.4, 140 mM NaCl, 3 mM KCl), 0.05% Tween-20, 50 mM imidazole, 50 nM duplex, 20 C; settings: protein: recombinant; label: 5' FAM (EMSA) or HEX (MST) on strand 1; blunt
# Mgal-WhiA [5] = biological target: T2, Mgal-WhiA; test: MST; no ATP; Hill n = 1.8 ± 0.2; EMSA: 20 mM carbonate pH 9.8, 6% glycerol, 37 C 10 min, gel at 10 C; MST: PBS (10 mM Na phosphate pH 7.4, 140 mM NaCl, 3 mM KCl), 0.05% Tween-20, 50 mM imidazole, 50 nM duplex, 20 C; settings: protein: recombinant; label: 5' FAM (EMSA) or HEX (MST) on strand 1; blunt
# Mgal-WhiA [6] = biological target: T2, Mgal-WhiA; test: MST; 1 mM ATP; n = 1; multistep curve; EMSA: 20 mM carbonate pH 9.8, 6% glycerol, 37 C 10 min, gel at 10 C; MST: PBS (10 mM Na phosphate pH 7.4, 140 mM NaCl, 3 mM KCl), 0.05% Tween-20, 50 mM imidazole, 50 nM duplex, 20 C; settings: protein: recombinant; label: 5' FAM (EMSA) or HEX (MST) on strand 1; blunt
# Mgal-WhiA Ser-258 = Mgal-WhiA Ser-258 (Mycoplasma gallisepticum S6, UniProt A0A0F6CKV5 1-295, S259G); test: MST; EMSA: 20 mM carbonate pH 9.8, 6% glycerol, 37 C 10 min, gel at 10 C; MST: PBS (10 mM Na phosphate pH 7.4, 140 mM NaCl, 3 mM KCl), 0.05% Tween-20, 50 mM imidazole, 50 nM duplex, 20 C; settings: protein: recombinant; label: 5' FAM (EMSA) or HEX (MST) on strand 1; blunt
# Mgal-WhiA Lys-216 = Mgal-WhiA Lys-216 (Mycoplasma gallisepticum S6, UniProt A0A0F6CKV5 1-295, K217G); test: as above; settings: protein: recombinant; label: 5' FAM (EMSA) or HEX (MST) on strand 1; blunt
# Mgal-WhiA [7] = biological target: T2, Mgal-WhiA; test: EMSA; 1 mM ATP; monomer complex; EMSA: 20 mM carbonate pH 9.8, 6% glycerol, 37 C 10 min, gel at 10 C; MST: PBS (10 mM Na phosphate pH 7.4, 140 mM NaCl, 3 mM KCl), 0.05% Tween-20, 50 mM imidazole, 50 nM duplex, 20 C; settings: protein: recombinant; label: 5' FAM (EMSA) or HEX (MST) on strand 1; blunt
# Mgal-WhiA [8] = biological target: T2, Mgal-WhiA; test: EMSA; no ATP; monomer complex; EMSA: 20 mM carbonate pH 9.8, 6% glycerol, 37 C 10 min, gel at 10 C; MST: PBS (10 mM Na phosphate pH 7.4, 140 mM NaCl, 3 mM KCl), 0.05% Tween-20, 50 mM imidazole, 50 nM duplex, 20 C; settings: protein: recombinant; label: 5' FAM (EMSA) or HEX (MST) on strand 1; blunt
# Mgal-WhiA [9] = biological target: T2, Mgal-WhiA; test: EMSA; 1 mM ATP; total binding; unit not printed (nM implied); EMSA: 20 mM carbonate pH 9.8, 6% glycerol, 37 C 10 min, gel at 10 C; MST: PBS (10 mM Na phosphate pH 7.4, 140 mM NaCl, 3 mM KCl), 0.05% Tween-20, 50 mM imidazole, 50 nM duplex, 20 C; settings: protein: recombinant, blunt
# Mgal-WhiA [10] = biological target: T2, Mgal-WhiA; test: EMSA; monomer complex; printed as with ATP, order probably swapped (no ATP likely); EMSA: 20 mM carbonate pH 9.8, 6% glycerol, 37 C 10 min, gel at 10 C; MST: PBS (10 mM Na phosphate pH 7.4, 140 mM NaCl, 3 mM KCl), 0.05% Tween-20, 50 mM imidazole, 50 nM duplex, 20 C; settings: protein: recombinant; label: 5' FAM on strand 1; blunt
# Mgal-WhiA [11] = biological target: T2, Mgal-WhiA; test: EMSA; monomer complex; printed as without ATP, order probably swapped (1 mM ATP likely); EMSA: 20 mM carbonate pH 9.8, 6% glycerol, 37 C 10 min, gel at 10 C; MST: PBS (10 mM Na phosphate pH 7.4, 140 mM NaCl, 3 mM KCl), 0.05% Tween-20, 50 mM imidazole, 50 nM duplex, 20 C; settings: protein: recombinant; label: 5' FAM on strand 1; blunt
# [12] = label: 5' FAM (EMSA) or HEX (MST) on strand 1
molecule,measurement,setting,value
Nc1ncnc2c1ncn2[C@@H]1O[C@H](COP(=O)(O)OP(=O)(O)OP(=O)(O)O)[C@@H](O)[C@H]1O [ATP],Kd,Mgal-WhiA [1],5000 ± 100 µM
WhiA-F1 (aux half-site) (dsDNA) DNA 1: AACCGTTGTCAAGTATC DNA 2: GATACTTGACAACGGTT,binding result,Mgal-WhiA [2],binds
Negative control (plsC promoter) (dsDNA) DNA 1: AGCGATAAGTTTTACGAATTAAGTCGTTTATTATATAATA DNA 2: TATTATATAATAAACGACTTAATTCGTAAAACTTATCGCT,Kd,Mgal-WhiA [3],0.12 ± 0.05 µM
rpsJ WT (dsDNA) DNA 1: AAAGATTGCTGATACACCAAAAACCGTTGTCAAGTATCAG DNA 2: CTGATACTTGACAACGGTTTTTGGTGTATCAGCAATCTTT,Kd,Mgal-WhiA [4]; [12],0.7 ± 0.08 µM
same,binding result,Mgal-WhiA Lys-170,binds
same,Kd,Mgal-WhiA [5],0.7 ± 0.1 µM
same,Kd,Mgal-WhiA [6],0.088 ± 0.012 µM
same,Kd,Mgal-WhiA Ser-258,2.6 ± 0.2 µM
same,Kd,Mgal-WhiA Lys-216,1.7 ± 0.1 µM
same,Kd,Mgal-WhiA [7],0.24 ± 0.07 µM
same,Kd,Mgal-WhiA [8],0.61 ± 0.1 µM
same,Kd,Mgal-WhiA [9]; [12],0.68 ± 0.09 µM
Mut1 (dsDNA) DNA 1: AAAGATTGCTGATACACCAAAAACCAGACTCAAGTATCAG DNA 2: CTGATACTTGAGTCTGGTTTTTGGTGTATCAGCAATCTTT,Kd,Mgal-WhiA [10],0.85 ± 0.13 µM
same,Kd,Mgal-WhiA [4]; label: 5' FAM on strand 1,0.75 ± 0.03 µM
same,Kd,Mgal-WhiA [11],0.29 ± 0.18 µM
same,Kd,Mgal-WhiA [9]; label: 5' FAM on strand 1,0.43 ± 0.09 µM
